Results as given in patent publication US20110301073, “Novel DNA-binding proteins and uses thereof” (Sangamo BioSciences, Inc., published 2011).

Tests used:
TALE13 +50 FokI = molecular target: T1, TALE13 +50 FokI (Xanthomonas axonopodis (engineered)); experiment: cleavage_in_vitro; two inverted sites, 16 bp gap; NEB Buffer 2, 37 C; conditions: tags: FLAG, NLS, chain copies: 2
T1 chain: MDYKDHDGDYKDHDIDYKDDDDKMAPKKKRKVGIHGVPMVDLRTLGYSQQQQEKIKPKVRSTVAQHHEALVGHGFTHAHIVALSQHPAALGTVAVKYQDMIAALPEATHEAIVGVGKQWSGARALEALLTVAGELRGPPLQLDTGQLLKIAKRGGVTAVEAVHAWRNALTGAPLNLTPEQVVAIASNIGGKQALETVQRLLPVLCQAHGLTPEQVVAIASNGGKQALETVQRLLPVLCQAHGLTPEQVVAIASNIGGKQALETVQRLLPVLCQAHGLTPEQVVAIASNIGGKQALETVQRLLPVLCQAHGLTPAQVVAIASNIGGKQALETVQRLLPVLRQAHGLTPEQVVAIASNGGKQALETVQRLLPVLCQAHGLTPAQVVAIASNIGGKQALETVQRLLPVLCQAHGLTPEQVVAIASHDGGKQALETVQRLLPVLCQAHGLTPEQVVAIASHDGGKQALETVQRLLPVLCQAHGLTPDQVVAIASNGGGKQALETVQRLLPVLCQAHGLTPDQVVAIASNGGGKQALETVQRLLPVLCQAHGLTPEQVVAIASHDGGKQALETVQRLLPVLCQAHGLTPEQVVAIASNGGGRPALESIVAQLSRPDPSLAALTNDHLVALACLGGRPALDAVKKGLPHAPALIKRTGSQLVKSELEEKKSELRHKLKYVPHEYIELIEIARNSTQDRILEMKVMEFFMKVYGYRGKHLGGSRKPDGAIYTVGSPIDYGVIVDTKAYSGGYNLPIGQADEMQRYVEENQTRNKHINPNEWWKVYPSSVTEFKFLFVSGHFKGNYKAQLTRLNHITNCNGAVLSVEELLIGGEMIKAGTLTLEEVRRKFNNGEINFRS
Procedure: (§1) TALE domain fusions were also constructed using Fold cleavage half domains. For these examples, wild type FokI half cleavage domains were used so that for nuclease activity, a homodimer must be formed from two of the fusions. For these fusions, the TALE13 DNA binding domain was fused to each FokI half domain by cloning the TALE DNA binding domain into a plasmid adjacent to FokI-specifying sequence. In addition, various linkers were tested for use between the DNA binding domain and the nuclease domain. Linkers L2 and L8 were used which are as follows: L2=GS (SEQ ID NO:71) and L8=[…] (SEQ ID NO:72). The target sites were cloned into a TOPO2.1 target vector (Invitrogen) with varying gap spacings between each target binding site such that the two were separated from each other by 2 to 22 bp. PCR amplification of an approximately 1 kb region of the target vector was done to generate the target DNAs. The TALE DNA binding domains were also truncated as described previously, and are described using the same nomenclature as described above in Examples 2 and 6. The TALE domain nuclease fusion clones were expressed in the TNT Rabbit Reticulocyte Lysate system by adding 5 μL of water containing 250 nanograms of the nuclease fusion clone plasmid to 20 μL of lysate and incubating at 30° C. for 90 minutes.
(§2) The lysate was then used to cleave the target DNAs as follows: 2.5 μL of lysate were added to a 50 μL reaction containing 50 nanograms of PCR-amplified target DNA and a final Buffer 2 (New England Biolabs) concentration of 1×. The cleavage reaction was for one hour at 37° C., followed by a 20 minute heat inactivation stage at 65° C. The reaction was then centrifuged at high speed to separate the target DNA from the lysate, causing the lysate to condense into a pellet in the reaction well. The DNA-containing supernatant was pipetted off and run on an ethidium bromide-stained agarose gel (Invitrogen) to separate intact target DNA from cleaved target DNA. The agarose gel was then analyzed using AlphaEaseFC (Alpha Innotech) software to measure the amount of target DNA present in the large uncleaved DNA band and the two smaller DNA bands resulting from a single cleavage event of the target DNA. The percentage of cleaved DNA out of the total amount of target DNA loaded into the gel represents the percent cleavage in each reaction.

TALE13 +79 FokI = molecular target: T2, TALE13 +79 FokI (Xanthomonas axonopodis (engineered)); experiment: as above; conditions: tags: FLAG, NLS, chain copies: 2
T2 chain: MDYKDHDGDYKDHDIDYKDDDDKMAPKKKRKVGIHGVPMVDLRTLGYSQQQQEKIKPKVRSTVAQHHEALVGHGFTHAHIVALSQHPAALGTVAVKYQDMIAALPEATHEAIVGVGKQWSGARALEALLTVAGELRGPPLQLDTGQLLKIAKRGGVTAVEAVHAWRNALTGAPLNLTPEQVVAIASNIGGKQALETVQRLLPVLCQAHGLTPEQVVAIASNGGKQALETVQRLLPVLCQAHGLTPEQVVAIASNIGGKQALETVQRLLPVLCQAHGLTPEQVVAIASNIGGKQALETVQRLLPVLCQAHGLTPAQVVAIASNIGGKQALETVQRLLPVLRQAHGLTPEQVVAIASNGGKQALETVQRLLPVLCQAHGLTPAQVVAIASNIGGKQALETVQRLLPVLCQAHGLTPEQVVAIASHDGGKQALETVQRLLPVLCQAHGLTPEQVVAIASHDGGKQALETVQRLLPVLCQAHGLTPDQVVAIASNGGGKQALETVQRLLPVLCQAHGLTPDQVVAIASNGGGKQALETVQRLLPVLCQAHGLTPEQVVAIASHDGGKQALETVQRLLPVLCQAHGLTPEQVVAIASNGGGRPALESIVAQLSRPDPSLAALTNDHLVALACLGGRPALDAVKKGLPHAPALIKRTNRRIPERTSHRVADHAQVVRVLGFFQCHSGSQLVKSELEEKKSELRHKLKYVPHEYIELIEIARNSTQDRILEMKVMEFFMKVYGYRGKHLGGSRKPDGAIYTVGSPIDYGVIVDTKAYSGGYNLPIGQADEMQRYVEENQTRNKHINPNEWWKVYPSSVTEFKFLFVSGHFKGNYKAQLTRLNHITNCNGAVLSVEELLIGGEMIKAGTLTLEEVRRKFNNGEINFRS
Procedure: as §1, §2

B1: TALE13 target (dsDNA)
DNA 1: TATAAATACCTTCT
DNA 2: AGAAGGTATTTATA
B1 was tested, and the activity (TALE13 +50 FokI) was 83 % cleavage and the activity (TALE13 +79 FokI) was 56 % cleavage.
